# Tests used:
# [1] = molecular target: full-length FLAG-tagged human TSLPR and full-length HA-tagged human IL-7Ralpha co-expressed on HEK293T cells (human) (UniProt Q9HC73); test: cell-based or functional assay
# [2] = molecular target: T1, C-terminally biotinylated human TSLP_R127A_R130S (pHL-TSLP_R127A_R130S-AVITAG construct) (human, UniProt Q969D9 29-159, specific C-terminal in vivo biotinylation on the AVITAG); test: biolayer interferometry (Octet RED96), biotinylated TSLP on streptavidin biosensors, 1:1 model
# T1 construct: Made in HEK293T cells with BirA co-transfection; immobilised on streptavidin biosensors for BLI; also called biotinylated TSLP; not shown: C-terminal AVITAG (and purification tag) of the pHL-AVITAG vector
# T1 sequence (Q969D9 29-159 R127A/R130S limits assumed): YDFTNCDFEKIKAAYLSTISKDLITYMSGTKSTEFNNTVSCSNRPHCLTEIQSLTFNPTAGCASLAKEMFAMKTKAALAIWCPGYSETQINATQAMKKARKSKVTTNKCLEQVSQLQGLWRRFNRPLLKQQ
# [3] = molecular target: T1, C-terminally biotinylated human …; test: biolayer interferometry (Octet RED96), biotinylated TSLP on streptavidin biosensors, 1:1 model, average of three replicates
# Experimental: All BLI experiments were performed in PBS buffer supplemented with 0.01% (w/v) BSA and 0.002% (v/v) Tween 20, with an Octet RED96 instrument (ForteBio), operating at 25° C.
# All data were fitted with the FortéBio Data Analysis 9.0.0.4 software using a 1:1 ligand model. The reported values for the fitted parameters represent the average (and standard deviation) from three replicate measurements.
# Chain of full-length FLAG-tagged human TSLPR and full-length HA-tagged human IL-7Ralpha co-expressed on HEK293T cells (human) (Q9HC73 23-371, chain 1 of 2): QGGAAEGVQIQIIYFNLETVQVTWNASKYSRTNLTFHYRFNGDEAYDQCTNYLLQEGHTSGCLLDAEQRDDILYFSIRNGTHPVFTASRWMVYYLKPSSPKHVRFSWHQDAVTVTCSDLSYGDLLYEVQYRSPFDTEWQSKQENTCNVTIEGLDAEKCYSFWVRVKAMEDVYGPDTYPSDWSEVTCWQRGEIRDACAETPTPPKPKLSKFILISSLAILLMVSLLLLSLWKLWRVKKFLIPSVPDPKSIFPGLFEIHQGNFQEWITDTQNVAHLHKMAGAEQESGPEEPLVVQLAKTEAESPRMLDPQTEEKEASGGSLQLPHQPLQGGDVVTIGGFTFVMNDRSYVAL
# Chain of full-length FLAG-tagged human TSLPR and full-length HA-tagged human IL-7Ralpha co-expressed on HEK293T cells (human) (P16871 21-459, chain 2 of 2, further chain): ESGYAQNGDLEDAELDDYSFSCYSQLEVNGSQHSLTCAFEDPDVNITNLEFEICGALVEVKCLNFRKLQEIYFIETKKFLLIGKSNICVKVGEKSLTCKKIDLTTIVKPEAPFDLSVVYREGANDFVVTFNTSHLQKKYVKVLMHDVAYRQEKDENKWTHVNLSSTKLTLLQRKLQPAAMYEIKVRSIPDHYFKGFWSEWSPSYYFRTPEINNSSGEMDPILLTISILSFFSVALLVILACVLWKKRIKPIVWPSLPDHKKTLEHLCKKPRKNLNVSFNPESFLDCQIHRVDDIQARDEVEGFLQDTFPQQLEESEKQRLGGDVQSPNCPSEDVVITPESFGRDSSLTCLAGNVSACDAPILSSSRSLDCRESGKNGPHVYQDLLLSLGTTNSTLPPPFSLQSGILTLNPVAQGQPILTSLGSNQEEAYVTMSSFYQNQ
STAT5-dependent luciferase activity in HEK293T cells transfected with full-length TSLPR and IL-7Ralpha [1],koff [2],Kd [3],kon [3],Molecule
9 pM,,,,"human TSLP_R127A_R130S, mammalian-cell derived recombinant, C-terminal His-tag (from UniProt Q969D9 29-159) (ligand)"
,1.72e-05 s⁻¹,0.12 nM,140000 M⁻¹ s⁻¹,"human TSLP-trap1 (designed binder, Monomeric single chain fusion protein; Produced in T-REx-293 cells) GAAEGVQIQIIYFNLETVQVTWNASKYSRTNLTFHYRFNGDEAYDQCTNYLLQEGHTSGCLLDAEQRDDILYFSIRNGTHPVFTASRWMVYYLKPSSPKHVRFSWHQDAVTVTCSDLSYGDLLYEVQYRSPFDTEWQSKQENTCNVTIEGLDAEKCYSFWVRVKAMEDVYGPDTYPSDWSEVTCWQRGEIRDACAETPTPPKPKLSKSRGGSGGSGGSGGSGGSGGSGGSGGSGGSGGSGGSGGSGGSGGSGGSGGSGGSGGSGGSGGSLQESGYAQNGDLEDAELDDYSFSCYSQLEVNGSQHSLTCAFEDPDVNTTNLEFEICGALVEVKCLNFRKLQEIYFIETKKFLLIGKSNICVKVGEKSLTCKKIDLTTIVKPEAPFDLSVIYREGANDFVVTFNTSHLQKKYVKVLMHDVAYRQEKDENKWTHVNLSSTKLTLLQRKLQPAAMYEIKVRSIPDHYFKGFWSEWSPSYYFRTPEINNSSGEMDGTKHHHHHH"

# — US20190127440A1 (VIB VZW, published 2019)
